This note sets out measurements from US20180319872A1.

Assay [1] deals with Clostridium difficile toxin B (TcdB) (Clostridium difficile) (UniProt P18177). Put plainly: ELISA on plates coated with 1 ug/ml TcdB (TxB), OD450. Background: An ELISA detects its analyte on a solid surface through an enzyme-linked reagent.
Assay [2] deals with Clostridium difficile toxin A (TcdA) (Clostridium difficile) (UniProt P16154). Kind of assay: cell-based or functional assay.
Assay [3] has the same target. Put plainly: ELISA on plates coated with 1 ug/ml TcdA (TxA), OD450.

Chain of Clostridium difficile toxin A (TcdA) (Clostridium difficile) (P16154 whole entry): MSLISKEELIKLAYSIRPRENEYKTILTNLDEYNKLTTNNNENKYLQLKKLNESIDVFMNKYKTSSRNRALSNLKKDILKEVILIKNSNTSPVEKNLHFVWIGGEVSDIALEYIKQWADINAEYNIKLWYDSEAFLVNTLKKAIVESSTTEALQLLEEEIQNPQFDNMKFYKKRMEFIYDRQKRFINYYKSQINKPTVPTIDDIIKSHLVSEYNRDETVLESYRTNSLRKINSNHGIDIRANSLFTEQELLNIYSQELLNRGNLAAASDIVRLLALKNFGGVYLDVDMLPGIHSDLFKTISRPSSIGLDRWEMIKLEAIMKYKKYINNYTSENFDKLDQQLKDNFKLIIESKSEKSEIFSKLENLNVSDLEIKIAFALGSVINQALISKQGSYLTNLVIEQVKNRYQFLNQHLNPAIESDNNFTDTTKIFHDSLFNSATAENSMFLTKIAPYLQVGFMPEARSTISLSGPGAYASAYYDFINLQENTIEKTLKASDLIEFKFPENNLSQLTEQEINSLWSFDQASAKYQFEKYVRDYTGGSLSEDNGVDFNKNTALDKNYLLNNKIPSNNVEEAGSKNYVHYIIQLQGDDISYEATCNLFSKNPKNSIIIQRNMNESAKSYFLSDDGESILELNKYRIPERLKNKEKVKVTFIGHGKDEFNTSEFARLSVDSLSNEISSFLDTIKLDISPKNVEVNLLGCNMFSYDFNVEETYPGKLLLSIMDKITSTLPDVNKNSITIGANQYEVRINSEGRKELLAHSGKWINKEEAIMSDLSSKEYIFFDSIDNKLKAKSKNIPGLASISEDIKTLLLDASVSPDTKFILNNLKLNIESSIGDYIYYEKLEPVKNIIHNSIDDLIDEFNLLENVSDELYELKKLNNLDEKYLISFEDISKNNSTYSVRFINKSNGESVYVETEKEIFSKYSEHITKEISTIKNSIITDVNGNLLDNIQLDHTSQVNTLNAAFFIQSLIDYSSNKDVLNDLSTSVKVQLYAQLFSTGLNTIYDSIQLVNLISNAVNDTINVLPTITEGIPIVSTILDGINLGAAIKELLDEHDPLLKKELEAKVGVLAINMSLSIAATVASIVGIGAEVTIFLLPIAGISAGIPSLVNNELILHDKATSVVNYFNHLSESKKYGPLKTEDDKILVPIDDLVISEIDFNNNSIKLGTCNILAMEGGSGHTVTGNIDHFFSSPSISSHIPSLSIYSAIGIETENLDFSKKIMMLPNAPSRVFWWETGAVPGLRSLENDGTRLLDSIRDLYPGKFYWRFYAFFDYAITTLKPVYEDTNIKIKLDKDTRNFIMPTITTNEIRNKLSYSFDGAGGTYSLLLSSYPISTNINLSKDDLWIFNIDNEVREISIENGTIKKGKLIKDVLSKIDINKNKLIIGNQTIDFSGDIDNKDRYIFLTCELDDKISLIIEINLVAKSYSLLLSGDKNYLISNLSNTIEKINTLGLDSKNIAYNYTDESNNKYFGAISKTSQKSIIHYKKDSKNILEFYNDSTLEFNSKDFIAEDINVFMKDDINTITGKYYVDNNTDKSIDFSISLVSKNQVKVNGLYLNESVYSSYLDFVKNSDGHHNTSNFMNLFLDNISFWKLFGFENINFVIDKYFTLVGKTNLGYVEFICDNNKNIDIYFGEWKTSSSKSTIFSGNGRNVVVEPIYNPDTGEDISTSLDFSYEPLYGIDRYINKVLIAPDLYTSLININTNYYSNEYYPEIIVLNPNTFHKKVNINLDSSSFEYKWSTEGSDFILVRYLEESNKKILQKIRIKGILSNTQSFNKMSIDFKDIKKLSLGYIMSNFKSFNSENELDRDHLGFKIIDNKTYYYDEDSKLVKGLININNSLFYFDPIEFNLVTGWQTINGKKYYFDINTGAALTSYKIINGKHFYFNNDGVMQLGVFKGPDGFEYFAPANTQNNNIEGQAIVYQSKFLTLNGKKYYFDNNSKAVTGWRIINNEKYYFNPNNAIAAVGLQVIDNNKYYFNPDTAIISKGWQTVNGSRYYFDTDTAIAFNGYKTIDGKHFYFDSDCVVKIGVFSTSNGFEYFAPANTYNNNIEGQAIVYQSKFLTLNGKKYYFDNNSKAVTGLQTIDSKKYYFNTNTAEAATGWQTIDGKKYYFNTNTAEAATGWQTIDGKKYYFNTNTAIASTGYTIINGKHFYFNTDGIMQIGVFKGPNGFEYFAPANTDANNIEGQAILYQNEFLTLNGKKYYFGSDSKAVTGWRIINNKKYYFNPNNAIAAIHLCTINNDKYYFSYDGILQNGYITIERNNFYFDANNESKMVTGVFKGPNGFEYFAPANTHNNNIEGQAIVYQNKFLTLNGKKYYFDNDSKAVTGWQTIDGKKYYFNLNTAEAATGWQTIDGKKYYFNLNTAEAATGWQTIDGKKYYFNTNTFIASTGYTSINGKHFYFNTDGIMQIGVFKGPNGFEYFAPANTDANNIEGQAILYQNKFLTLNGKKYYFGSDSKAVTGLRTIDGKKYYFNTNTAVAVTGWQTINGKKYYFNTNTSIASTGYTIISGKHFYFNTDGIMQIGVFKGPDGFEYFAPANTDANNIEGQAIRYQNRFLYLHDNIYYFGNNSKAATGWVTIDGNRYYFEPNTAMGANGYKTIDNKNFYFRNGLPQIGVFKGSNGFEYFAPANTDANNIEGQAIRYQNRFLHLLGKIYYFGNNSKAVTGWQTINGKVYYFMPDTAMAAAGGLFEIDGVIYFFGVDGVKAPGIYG
Chain of Clostridium difficile toxin B (TcdB) (Clostridium difficile) (P18177 2-2366 limits assumed): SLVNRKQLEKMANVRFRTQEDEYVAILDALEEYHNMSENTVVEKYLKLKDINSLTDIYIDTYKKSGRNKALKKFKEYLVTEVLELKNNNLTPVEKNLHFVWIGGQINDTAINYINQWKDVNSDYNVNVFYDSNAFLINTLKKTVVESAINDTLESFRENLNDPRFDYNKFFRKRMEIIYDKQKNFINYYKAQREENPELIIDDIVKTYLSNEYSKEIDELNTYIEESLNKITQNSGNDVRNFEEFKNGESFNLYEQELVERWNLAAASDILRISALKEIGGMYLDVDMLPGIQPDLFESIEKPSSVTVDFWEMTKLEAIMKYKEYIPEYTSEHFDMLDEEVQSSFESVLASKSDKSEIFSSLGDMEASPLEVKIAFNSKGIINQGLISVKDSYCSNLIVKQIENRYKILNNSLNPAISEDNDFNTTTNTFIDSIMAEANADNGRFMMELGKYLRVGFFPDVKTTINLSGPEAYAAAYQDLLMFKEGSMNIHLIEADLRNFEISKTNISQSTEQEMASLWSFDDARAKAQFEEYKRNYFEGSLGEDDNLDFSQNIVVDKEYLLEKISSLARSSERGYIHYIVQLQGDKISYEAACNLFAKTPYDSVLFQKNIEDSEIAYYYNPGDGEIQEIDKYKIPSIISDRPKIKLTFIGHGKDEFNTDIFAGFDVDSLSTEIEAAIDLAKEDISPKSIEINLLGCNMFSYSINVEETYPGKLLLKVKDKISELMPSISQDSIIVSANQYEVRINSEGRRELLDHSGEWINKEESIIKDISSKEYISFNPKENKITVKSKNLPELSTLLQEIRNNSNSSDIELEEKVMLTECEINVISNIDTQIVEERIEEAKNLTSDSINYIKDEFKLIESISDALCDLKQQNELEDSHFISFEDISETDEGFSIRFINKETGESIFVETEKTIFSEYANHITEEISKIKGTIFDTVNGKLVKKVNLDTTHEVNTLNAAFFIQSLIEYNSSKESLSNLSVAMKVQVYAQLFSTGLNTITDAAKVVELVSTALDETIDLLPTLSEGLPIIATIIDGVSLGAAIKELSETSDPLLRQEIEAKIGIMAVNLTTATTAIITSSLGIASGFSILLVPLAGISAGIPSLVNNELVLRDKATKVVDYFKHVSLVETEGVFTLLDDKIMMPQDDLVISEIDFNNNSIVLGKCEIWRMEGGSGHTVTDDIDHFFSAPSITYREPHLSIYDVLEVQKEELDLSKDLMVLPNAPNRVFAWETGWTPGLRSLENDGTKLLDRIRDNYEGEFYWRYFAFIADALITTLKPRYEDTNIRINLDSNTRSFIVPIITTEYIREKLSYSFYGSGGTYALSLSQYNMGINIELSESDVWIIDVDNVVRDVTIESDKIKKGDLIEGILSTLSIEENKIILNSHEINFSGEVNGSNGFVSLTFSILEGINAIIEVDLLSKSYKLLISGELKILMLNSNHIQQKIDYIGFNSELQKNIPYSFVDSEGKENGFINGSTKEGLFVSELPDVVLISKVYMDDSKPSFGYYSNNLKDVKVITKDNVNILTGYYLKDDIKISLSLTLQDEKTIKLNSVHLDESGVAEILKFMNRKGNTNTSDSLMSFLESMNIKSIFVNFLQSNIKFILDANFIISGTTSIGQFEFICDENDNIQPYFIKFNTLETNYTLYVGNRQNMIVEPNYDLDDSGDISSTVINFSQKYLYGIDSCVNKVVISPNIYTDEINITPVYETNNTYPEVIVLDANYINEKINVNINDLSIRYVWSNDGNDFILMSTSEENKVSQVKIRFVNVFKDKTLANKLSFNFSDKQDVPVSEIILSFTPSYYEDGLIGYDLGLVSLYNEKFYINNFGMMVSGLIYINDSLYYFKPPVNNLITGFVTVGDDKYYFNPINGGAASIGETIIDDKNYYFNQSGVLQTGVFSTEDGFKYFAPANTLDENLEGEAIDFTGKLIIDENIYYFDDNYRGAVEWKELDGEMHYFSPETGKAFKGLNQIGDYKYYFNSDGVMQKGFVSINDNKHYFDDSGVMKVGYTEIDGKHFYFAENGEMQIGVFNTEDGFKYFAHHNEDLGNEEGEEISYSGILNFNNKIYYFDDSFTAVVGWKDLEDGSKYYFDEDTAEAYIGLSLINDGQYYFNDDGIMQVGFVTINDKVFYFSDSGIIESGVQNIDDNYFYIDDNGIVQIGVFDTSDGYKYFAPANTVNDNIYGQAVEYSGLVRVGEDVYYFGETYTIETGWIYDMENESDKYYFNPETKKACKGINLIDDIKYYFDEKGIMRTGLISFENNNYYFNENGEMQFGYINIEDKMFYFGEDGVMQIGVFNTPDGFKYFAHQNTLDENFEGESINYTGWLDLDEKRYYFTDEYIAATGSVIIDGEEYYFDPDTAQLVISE

As a reminder, the EC50 (read off the curve) is the midpoint of the concentration-response curve. As for Merc Ab (antibody), the EC50 (read off the curve) in assay [1] turned out to be 10 ng/mL.
Turning to “Merck anti-TcdA human monoclonal antibody (actoxumab)”, the minimal dose protecting Vero cells from TcdA-induced cell rounding (5 ng/ml TcdA) in assay [2] was above 10 nM. For the same substance, the EC50 (read off the curve) in assay [3] was 2 ng/mL.
